Data on 1 molecule can be found in paper doi:10.1101/620195, “Modulation of DNA polymerase IV activity by UmuD and RecA* observed by single-molecule time-lapse microscopy” (bioRxiv, 2019).

This assay concerns the target T1, E. coli RecA(E38K) protein (E. coli, UniProt P0A7G6 1-353, E38K).
T1 construct: RecA recombinase, E. coli, with the E38K mutation (allele recA730); In the assay it stood as a filament assembled with ATPγS on a biotinylated 60-mer dsDNA held on a streptavidin chip; also called recA730; RecA(E38K)-ATPγS filaments
T1 sequence (looked up): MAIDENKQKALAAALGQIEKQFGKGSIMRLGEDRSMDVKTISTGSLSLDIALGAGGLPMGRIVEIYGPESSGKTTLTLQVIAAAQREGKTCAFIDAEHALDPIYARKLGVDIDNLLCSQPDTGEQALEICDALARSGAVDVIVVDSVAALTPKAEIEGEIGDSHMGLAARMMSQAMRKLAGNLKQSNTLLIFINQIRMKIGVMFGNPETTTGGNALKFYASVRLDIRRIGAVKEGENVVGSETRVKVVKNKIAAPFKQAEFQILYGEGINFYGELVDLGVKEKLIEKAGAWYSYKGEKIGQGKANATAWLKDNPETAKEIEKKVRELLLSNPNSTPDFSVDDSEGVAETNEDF
The experiment in a line: SPR; BIAcore T200, SA chip; RecA(E38K) filaments assembled on immobilised biotinylated 60-mer dsDNA; 0.65 uM pol IV injected for 220 s at 5 uL/min; 20 °C; 20 mM Tris-HCl pH 8.0, 10 mM KCl, 10 mM MgCl2, 0.005% surfactant P20, 0.5 mM dithiothreitol, 0.5 mM ATPγS. The following applies: both partners purified. On the technique in general: Surface plasmon resonance follows binding to a sensor surface in real time, without labels.

B1: DNA polymerase IV (pol IV) (enzyme, E. coli, UniProt Q47155 1-351, looked up)
chain: MRKIIHVDMDCFFAAVEMRDNPALRDIPIAIGGSRERRGVISTANYPARKFGVRSAMPTGMALKLCPHLTLLPGRFDAYKEASNHIREIFSRYTSRIEPLSLDEAYLDVTDSVHCHGSATLIAQEIRQTIFNELQLTASAGVAPVKFLAKIASDMNKPNGQFVITPAEVPAFLQTLPLAKIPGVGKVSAAKLEAMGLRTCGDVQKCDLVMLLKRFGKFGRILWERSQGIDERDVNSERLRKSVGVERTMAEDIHHWSECEAIIERLYPELERRLAKVKPDLLIARQGVKLKFDDFQQTTQEHVWPRLNKADLIATARKTWDERRGGRGVRLVGLHVTLLDPQMERQLVLGL
notes: DNA polymerase IV, product of dinB, E. coli; Native pol IV, no tag, > 99% pure; also called DinB
For B1, the binding result is reported as “binds”.
